According to IntAct's records for PubMed 31515488:

B1: WD repeat domain-containing protein 83 (Homo sapiens), Q9BRX9 (parent)
chain: MAFPEPKPRPPELPQKRLKTLDCGQGAVRAVRFNVDGNYCLTCGSDKTLKLWNPLRGTLLRTYSGHGYEVLDAAGSFDNSSLCSGGGDKAVVLWDVASGQVVRKFRGHAGKVNTVQFNEEATVILSGSIDSSIRCWDCRSRRPEPVQTLDEARDGVSSVKVSDHEILAGSVDGRVRRYDLRMGQLFSDYVGSPITCTCFSRDGQCTLVSSLDSTLRLLDKDTGELLGEYKGHKNQEYKLDCCLSERDTHVVSCSEDGKVFFWDLVEGALALALPVGSGVVQSLAYHPTEPCLLTAMGGSVQCWREEAYEAEDGAG
B2: Zinc finger protein Aiolos (Homo sapiens), Q9UKT9 (parent)
chain: MEDIQTNAELKSTQEQSVPAESAAVLNDYSLTKSHEMENVDSGEGPANEDEDIGDDSMKVKDEYSERDENVLKSEPMGNAEEPEIPYSYSREYNEYENIKLERHVVSFDSSRPTSGKMNCDVCGLSCISFNVLMVHKRSHTGERPFQCNQCGASFTQKGNLLRHIKLHTGEKPFKCHLCNYACQRRDALTGHLRTHSVEKPYKCEFCGRSYKQRSSLEEHKERCRTFLQSTDPGDTASAEARHIKAEMGSERALVLDRLASNVAKRKSSMPQKFIGEKRHCFDVNYNSSYMYEKESELIQTRMMDQAINNAISYLGAEALRPLVQTPPAPTSEMVPVISSMYPIALTRAEMSNGAPQELEKKSIHLPEKSVPSERGLSPNNSGHDSTDTDSNHEERQNHIYQQNHMVLSRARNGMPLLKEVPRSYELLKPPPICPRDSVKVINKEGEVMDVYRCDHCRVLFLDYVMFTIHMGCHGFRDPFECNMCGYRSHDRYEFSSHIARGEHRALLK
partner: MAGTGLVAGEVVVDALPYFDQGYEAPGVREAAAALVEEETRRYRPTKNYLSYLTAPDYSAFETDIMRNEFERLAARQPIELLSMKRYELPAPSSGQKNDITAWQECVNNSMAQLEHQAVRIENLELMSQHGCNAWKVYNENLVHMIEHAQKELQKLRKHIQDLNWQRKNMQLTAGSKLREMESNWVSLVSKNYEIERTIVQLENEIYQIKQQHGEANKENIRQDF
B3: Notch homolog 2 N-terminal-like protein A (Homo sapiens), Q7Z3S9 (parent)
chain: MCVTYHNGTGYCKCPEGFLGEYCQHRDPCEKNRCQNGGTCVAQAMLGKATCRCASGFTGEDCQYSTSHPCFVSRPCLNGGTCHMLSRDTYECTCQVGFTGKECQWTDACLSHPCANGSTCTTVANQFSCKCLTGFTGQKCETDVNECDIPGHCQHGGTCLNLPGSYQCQCLQGFTGQYCDSLYVPCAPSPCVNGGTCRQTGDFTFECNCLPETVRRGTELWERDREVWNGKEHDEN
partner: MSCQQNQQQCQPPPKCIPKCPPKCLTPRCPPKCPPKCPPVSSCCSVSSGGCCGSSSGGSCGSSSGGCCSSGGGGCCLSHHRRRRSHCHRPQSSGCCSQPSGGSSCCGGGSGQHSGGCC
B4: Dynein light chain 2, cytoplasmic (Homo sapiens), Q96FJ2 (parent)
chain: MSDRKAVIKNADMSEDMQQDAVDCATQAMEKYNIEKDIAAYIKKEFDKKYNPTWHCIVGRNFGSYVTHETKHFIYFYLGQVAILLFKSG
partner: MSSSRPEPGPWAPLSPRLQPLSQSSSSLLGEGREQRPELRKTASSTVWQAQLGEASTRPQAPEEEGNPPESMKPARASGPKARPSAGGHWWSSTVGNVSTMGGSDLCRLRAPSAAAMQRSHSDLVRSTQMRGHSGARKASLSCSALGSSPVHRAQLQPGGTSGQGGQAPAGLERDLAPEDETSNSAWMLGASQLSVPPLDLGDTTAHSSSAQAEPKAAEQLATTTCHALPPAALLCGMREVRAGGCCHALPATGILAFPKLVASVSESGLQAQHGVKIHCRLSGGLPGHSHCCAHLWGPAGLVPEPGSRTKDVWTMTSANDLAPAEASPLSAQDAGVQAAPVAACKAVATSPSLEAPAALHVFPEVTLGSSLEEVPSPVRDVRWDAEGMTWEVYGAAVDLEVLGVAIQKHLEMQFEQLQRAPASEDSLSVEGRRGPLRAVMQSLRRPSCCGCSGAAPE
B5: N-acetyltransferase 8 (Homo sapiens), Q9UHE5 (parent)
chain: MAPCHIRKYQESDRQWVVGLLSRGMAEHAPATFRQLLKLPRTLILLLGGPLALLLVSGSWLLALVFSISLFPALWFLAKKPWTEYVDMTLCTDMSDITKSYLSERGSCFWVAESEEKVVGMVGALPVDDPTLREKRLQLFHLFVDSEHRRQGIAKALVRTVLQFARDQGYSEVILDTGTIQLSAMALYQSMGFKKTGQSFFCVWARLVALHTVHFIYHLPSSKVGSL
partner: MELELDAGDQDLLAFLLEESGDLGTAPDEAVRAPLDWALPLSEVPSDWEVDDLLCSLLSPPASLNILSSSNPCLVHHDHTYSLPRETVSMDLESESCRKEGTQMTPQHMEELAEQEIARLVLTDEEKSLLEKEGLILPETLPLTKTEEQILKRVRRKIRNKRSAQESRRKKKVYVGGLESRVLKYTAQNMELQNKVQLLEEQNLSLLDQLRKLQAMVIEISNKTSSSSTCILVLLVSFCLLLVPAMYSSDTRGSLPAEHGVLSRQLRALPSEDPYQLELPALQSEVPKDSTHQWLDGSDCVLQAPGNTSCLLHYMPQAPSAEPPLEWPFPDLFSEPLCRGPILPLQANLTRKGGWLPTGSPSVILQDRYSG
B6: Tuftelin-interacting protein 11 (Homo sapiens), Q9UBB9 (parent)
chain: MSLSHLYRDGEGRIDDDDDERENFEITDWDLQNEFNPNRQRHWQTKEEATYGVWAERDSDDERPSFGGKRARDYSAPVNFISAGLKKGAAEEAELEDSDDEEKPVKQDDFPKDFGPRKLKTGGNFKPSQKGFAGGTKSFMDFGSWERHTKGIGQKLLQKMGYVPGRGLGKNAQGIINPIEAKQRKGKGAVGAYGSERTTQSMQDFPVVDSEEEAEEEFQKELSQWRKDPSGSKKKPKYSYKTVEELKAKGRISKKLTAPQKELSQVKVIDMTGREQKVYYSYSQISHKHNVPDDGLPLQSQQLPQSGKEAKAPGFALPELEHNLQLLIDLTEQEIIQNDRQLQYERDMVVNLFHELEKMTEVLDHEERVISNLSKVLEMVEECERRMQPDCSNPLTLDECARIFETLQDKYYEEYRMSDRVDLAVAIVYPLMKEYFKEWDPLKDCTYGTEIISKWKSLLENDQLLSHGGQDLSADAFHRLIWEVWMPFVRNIVTQWQPRNCDPMVDFLDSWVHIIPVWILDNILDQLIFPKLQKEVENWNPLTDTVPIHSWIHPWLPLMQARLEPLYSPIRSKLSSALQKWHPSDSSAKLILQPWKDVFTPGSWEAFMVKNIVPKLGMCLGELVINPHQQHMDAFYWVIDWEGMISVSSLVGLLEKHFFPKWLQVLCSWLSNSPNYEEITKWYLGWKSMFSDQVLAHPSVKDKFNEALDIMNRAVSSNVGAYMQPGARENIAYLTHTERRKDFQYEAMQERREAENMAQRGIGVAASSVPMNFKDLIETKAEEHNIVFMPVIGKRHEGKQLYTFGRIVIYIDRGVVFVQGEKTWVPTSLQSLIDMAK
partner: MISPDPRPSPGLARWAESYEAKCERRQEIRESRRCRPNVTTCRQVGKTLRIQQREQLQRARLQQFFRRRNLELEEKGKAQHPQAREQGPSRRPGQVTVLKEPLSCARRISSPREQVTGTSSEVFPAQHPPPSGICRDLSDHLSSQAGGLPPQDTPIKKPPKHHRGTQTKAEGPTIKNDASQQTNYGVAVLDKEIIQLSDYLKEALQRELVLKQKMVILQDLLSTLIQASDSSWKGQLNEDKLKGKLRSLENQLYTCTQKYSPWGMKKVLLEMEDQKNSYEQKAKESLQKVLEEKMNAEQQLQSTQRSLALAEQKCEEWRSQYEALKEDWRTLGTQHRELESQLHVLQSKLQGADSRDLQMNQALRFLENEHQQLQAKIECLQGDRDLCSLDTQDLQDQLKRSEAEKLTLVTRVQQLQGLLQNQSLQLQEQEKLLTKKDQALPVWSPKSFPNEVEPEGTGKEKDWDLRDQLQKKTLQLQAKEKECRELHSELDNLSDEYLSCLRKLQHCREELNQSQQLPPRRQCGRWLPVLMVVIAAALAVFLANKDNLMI
B7: Coiled-coil domain-containing protein 33 (Homo sapiens), Q8N5R6-5 (parent)
chain: MGEPGPPSPPAPKAAPGLIDSFSEMNNYRRAMQKMAEDILSLRRQASILEGENRILRSRLAQQEEEEGQGKASEAQNTVSMKQKLLLSELDMKKLRDRVQHLQNELIRKNDREKELLLLYQAQQPQAALLKQYQGKLQKMKALEETVRHQEKVIEKMERVLEDRLQDRSKPPPLNRQQGKPYTGFPMLSASGLPLGSMGENLPVELYSVLLAENAKLRTELDKNRHQQAPIILQQQALPVDPGELGAGGDLTERLQETHGPGHSECTETLPAQDLLSGTSDKFNLLAKLEHAQSRILSLESQLEDSARRWGREKQDLATRLQEQEKGFRHPSNSIIIEQPVSDPPGVAPRGSGGGAGSHRTPKVTGP
partner: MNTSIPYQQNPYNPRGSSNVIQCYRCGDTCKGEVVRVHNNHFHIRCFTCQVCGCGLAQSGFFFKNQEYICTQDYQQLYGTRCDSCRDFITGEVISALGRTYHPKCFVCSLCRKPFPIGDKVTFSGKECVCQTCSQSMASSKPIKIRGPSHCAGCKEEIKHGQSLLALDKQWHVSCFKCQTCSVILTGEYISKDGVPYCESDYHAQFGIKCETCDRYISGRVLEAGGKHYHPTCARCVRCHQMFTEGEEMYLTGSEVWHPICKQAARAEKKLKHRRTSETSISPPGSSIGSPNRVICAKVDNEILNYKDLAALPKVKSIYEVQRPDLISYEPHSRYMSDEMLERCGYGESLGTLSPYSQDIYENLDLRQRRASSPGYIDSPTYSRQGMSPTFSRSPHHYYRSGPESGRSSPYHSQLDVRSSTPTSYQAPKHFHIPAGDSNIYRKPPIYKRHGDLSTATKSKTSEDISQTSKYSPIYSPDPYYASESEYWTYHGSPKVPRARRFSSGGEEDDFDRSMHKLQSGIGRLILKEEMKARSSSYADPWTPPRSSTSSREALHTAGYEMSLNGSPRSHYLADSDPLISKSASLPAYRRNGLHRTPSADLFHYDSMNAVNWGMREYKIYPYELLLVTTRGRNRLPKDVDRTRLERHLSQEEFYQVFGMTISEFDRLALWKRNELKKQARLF

Variants of: B1
Settings: with keap1_human KEAP1, Q14145
keap1_human KEAP1, Q14145, sequence (Q14145 whole entry): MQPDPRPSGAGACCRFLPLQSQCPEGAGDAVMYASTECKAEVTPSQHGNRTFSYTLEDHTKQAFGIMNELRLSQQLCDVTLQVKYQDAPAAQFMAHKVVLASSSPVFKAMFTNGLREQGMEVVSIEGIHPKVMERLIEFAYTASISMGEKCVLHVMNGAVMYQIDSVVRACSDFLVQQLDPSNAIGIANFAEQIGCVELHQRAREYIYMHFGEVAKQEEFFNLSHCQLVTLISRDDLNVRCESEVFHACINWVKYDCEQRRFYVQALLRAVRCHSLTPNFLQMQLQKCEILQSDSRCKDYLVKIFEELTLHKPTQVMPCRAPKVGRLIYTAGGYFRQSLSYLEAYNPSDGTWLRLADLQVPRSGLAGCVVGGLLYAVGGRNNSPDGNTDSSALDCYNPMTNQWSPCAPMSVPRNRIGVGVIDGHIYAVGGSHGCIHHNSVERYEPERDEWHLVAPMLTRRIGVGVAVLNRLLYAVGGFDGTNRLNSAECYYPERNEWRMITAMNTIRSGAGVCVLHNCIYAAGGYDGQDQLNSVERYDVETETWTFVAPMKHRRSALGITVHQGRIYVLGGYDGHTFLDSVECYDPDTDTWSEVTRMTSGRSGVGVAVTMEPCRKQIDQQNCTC

Question: For G278S, which “effect of a mutation on the interaction” value is on record?
Answer: Its value is “with no effect”.

Variants of: B2
Settings: with spf27_human BCAS2, O75934

Question: For A24V, which “effect of a mutation on the interaction” value is on record?
Answer: The value was “with no effect”.

Question: Which “effect of a mutation on the interaction” value does the source give for N119D here?
Answer: The value was “with no effect”.

Variants of: B3
Settings: with lce1b_human LCE1B

Question: How did the “effect of a mutation on the interaction” value turn out when R74Q was run?
Answer: The value was “with no effect”.

Question: A115T was tested. Which “effect of a mutation on the interaction” value did it give?
Answer: The value was “with no effect”.

Variants of: B4
Settings: with grin2_human GPRIN2, O60269

Question: With N33S as the variant, how does the “effect of a mutation on the interaction” value read?
Answer: The value was “with no effect”.

Variants of: B5
Settings: with creb3_human CREB3, O43889

Question: With F143S as the variant, how does the “effect of a mutation on the interaction” value read?
Answer: The value was “with no effect”.

Variants of: B6
Settings: with TRAF3IP3, Q9Y228

Question: M140V was tested. Which “effect of a mutation on the interaction” value did it give?
Answer: Its value is “with no effect”.

Variants of: B7
Settings: with ablm3_human ABLIM3, O94929

Question: How did the “effect of a mutation on the interaction” value turn out when M25V was run?
Answer: Its value is “with no effect”.

Question: Which “effect of a mutation on the interaction” value does the source give for R30L here?
Answer: Its value is “with no effect”.

Question: With G196R as the variant, how does the “effect of a mutation on the interaction” value read?
Answer: The value was “with no effect”.

Question: How did the “effect of a mutation on the interaction” value turn out when P203L was run?
Answer: The value was “disrupting interaction strength”.
